Results reported in patent US20220193204A1 (BAYLOR COLLEGE OF MEDICINE, published 2022).

Legend:
[1] = target: recombinant SARS-CoV-2 spike protein (S) (SARS-CoV-2, UniProt P0DTC2 16-1213)
[2] = target: recombinant human vimentin (human, UniProt P08670 2-466, limits assumed); assay: ELISA: increasing concentrations of A2 variant on recombinant human vimentin, bound A2 detected with anti-A2 antibody and a secondary HRP conjugate
Chain of recombinant human vimentin (P08670 2-466 limits assumed): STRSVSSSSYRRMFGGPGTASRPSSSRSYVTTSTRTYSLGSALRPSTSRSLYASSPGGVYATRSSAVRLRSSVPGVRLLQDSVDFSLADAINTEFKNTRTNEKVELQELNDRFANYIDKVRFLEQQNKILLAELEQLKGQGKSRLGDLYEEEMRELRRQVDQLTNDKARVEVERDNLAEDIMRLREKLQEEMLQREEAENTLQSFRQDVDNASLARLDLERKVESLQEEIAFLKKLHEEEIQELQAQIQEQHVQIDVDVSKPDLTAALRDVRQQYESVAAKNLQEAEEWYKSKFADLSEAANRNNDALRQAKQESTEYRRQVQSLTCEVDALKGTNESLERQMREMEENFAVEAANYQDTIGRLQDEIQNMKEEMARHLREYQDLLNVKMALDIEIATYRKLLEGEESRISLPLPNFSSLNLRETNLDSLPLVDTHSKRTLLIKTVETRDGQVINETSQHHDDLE

Row | Binder | binding result [1] | EC50 (read off the curve) [2]
1 | recombinant A2 domain of human von Willebrand factor (WT A2 protein) (other, conjugated to Alexa Fluor 488 in the confocal microscopy experiments only, not shown: histidine tag (vector pQE-9/VWF-A2)) GLLGVSTLGPKRNSMVLDVAFVLEGSDKIGEADFNRSKEFMEEVIQRMDVGQDSIHVTVLQYSYMVTVEYPFSEAQSKGDILQRVREIRYQGGNRTNTGLALRYLSDHSFLVSQGDREQAPNLVYMVTGNPASDEIKRLPGDIQVVPIGVGPNANVQELERIGWPNAPILIQDFETLPREAPDLVLQR | no binding | ~40 nM
2 | recombinant A2 (E1567A) mutant of the A2 domain of human von Willebrand factor (other, also called A2 mutant; A2 mutant protein; not shown: Histidine tag from the pQE-9 vector) GLLGVSTLGPKRNSMVLDVAFVLEGSDKIGEADFNRSKEFMEEVIQRMDVGQDSIHVTVLQYSYMVTVEYPFSEAQSKGDILQRVRAIRYQGGNRTNTGLALRYLSDHSFLVSQGDREQAPNLVYMVTGNPASDEIKRLPGDIQVVPIGVGPNANVQELERIGWPNAPILIQDFETLPREAPDLVLQR | – | ~70 nM
